The target in this assay is Caf1-FLAG epitope NT (Yersinia pestis, UniProt P26948 1-170). As to the kind of experiment: co-expression in E. coli, western blot of partly heat-dissociated polymer. On the technique in general: Immunoblotting shows a protein as a band on a membrane.

B1: Caf1 WT (naturally occurring Caf1 polypeptide monomer from Yersinia pestis; fraction 1 antigen polymer) (other)
chain: ADLTASTTATATLVEPARITLTYKEGAPITIMDNGNIDTELLVGTLTLGGYKTGTTSTSVNFTDAAGDPMYLTFTSQDGNNHQFTTKVIGKDSRDFDISPKVNGENLVGDDVVLATGSQDFFVRSIGSKGGKLAAGKYTDAVTVTVSNQ
For the molecule B1, the binding result is on record as “binds”.

The values above are taken from patent publication US20150299272A1 (UNIVERSITY OF NEWCASTLE UPON TYNE, published 2015).
